The target of experiment [1] is T1, human NPR-C (human, UniProt P17342 27-541).
T1 construct: whole, on cells; also called clearance receptor
T1 sequence: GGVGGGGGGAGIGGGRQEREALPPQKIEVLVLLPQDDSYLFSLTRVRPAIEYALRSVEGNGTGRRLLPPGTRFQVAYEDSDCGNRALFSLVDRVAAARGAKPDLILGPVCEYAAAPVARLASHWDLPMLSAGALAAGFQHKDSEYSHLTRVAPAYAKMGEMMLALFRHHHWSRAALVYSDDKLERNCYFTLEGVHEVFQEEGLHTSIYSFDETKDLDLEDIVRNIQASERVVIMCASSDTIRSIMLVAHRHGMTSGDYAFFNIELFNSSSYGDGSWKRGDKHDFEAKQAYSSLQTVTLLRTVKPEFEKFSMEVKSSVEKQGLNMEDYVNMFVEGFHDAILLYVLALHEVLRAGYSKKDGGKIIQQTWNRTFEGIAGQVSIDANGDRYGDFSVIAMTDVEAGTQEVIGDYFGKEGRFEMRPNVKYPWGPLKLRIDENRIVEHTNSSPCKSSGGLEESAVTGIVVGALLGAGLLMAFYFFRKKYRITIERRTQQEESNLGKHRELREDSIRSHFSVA
Put plainly: displacement of ^125I-ANP from NPR-C.

Experiment [2] has as its target T2, human NPR-B (human, UniProt P20594 23-1047).
T2 sequence: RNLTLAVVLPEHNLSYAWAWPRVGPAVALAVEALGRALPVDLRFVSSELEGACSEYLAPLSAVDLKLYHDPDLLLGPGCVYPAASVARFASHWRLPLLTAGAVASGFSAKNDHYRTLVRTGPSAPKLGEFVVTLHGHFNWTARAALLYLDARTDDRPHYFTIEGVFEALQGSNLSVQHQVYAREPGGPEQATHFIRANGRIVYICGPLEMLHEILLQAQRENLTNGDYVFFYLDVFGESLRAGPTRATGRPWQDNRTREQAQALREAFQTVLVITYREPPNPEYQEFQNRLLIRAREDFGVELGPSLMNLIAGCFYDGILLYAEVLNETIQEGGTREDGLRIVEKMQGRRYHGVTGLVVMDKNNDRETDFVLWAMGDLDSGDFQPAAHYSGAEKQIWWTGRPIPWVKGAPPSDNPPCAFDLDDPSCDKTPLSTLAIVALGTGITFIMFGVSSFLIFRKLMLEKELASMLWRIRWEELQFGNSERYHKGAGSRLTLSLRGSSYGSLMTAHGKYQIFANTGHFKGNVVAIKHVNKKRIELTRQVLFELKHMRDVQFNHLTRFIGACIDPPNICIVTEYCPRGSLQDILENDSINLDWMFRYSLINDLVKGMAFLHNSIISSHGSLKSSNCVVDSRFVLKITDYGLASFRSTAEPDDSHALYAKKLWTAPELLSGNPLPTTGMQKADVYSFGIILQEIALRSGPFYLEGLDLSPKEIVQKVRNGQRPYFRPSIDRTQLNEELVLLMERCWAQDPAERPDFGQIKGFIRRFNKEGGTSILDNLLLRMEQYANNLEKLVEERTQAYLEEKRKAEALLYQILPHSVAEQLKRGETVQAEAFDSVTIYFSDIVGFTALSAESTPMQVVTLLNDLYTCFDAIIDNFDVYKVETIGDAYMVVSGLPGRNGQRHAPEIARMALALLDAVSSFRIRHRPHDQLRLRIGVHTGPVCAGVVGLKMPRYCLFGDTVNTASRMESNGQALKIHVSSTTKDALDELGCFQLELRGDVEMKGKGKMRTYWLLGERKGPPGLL
Nature of the experiment: cell-based or functional assay.

Experiment [3] deals with T3, human NPR-A (human, UniProt P16066 33-1061).
T3 construct: whole, on cells; also called hNPR-A; hNPRA
T3 sequence: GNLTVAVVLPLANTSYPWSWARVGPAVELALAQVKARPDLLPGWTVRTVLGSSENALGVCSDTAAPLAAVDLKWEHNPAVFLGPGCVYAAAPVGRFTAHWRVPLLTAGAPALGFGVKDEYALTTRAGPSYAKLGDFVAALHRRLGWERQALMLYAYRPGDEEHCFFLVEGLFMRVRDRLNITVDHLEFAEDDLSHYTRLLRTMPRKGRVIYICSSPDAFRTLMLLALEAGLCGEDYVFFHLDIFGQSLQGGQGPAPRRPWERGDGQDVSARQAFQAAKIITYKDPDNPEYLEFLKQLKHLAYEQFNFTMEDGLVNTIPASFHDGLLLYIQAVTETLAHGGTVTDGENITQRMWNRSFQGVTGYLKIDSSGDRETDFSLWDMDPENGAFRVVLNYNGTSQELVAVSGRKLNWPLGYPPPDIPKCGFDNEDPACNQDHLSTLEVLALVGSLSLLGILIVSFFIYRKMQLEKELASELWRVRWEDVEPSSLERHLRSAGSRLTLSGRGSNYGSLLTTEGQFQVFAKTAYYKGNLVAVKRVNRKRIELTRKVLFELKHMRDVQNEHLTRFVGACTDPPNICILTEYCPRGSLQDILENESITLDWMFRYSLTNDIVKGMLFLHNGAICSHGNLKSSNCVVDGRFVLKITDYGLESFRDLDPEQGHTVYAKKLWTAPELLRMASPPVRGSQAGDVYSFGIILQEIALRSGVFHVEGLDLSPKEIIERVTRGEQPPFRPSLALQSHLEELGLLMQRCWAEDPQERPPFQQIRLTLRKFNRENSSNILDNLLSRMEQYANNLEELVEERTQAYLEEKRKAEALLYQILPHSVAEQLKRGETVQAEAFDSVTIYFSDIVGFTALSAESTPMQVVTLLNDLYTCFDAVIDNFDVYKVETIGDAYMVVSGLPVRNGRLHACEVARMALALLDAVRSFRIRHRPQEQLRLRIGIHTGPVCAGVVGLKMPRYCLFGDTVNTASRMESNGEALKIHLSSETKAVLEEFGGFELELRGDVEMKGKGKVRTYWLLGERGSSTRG
Nature of the experiment: competition ^125I-ANP binding on whole 293 cells expressing hNPR-A.

Experiment [4] addresses T3, human NPR-A. Nature of the experiment: not told; no binding experiment of DNP on NPR-A is described.

Where no end group is shown, it is not given here.

For SLRRSSCFGGRMDRIGAQSGLGCNSFRY (ligand) [Human ANP], in experiment [1], the binding result is on record as “binds”.

For GLSKGCFGLKLDRIGSMSGLGC (ligand) [Human CNP], the results for the binding result in experiment [1] and in experiment [3] were “binds” and “no binding (tested: 10 µM)”, respectively. Also, the “EC50, cellular cGMP elevation in 293 cells expressing hNPR-B” value in experiment [2] was determined as 38 nM.

For EVKYDPCFGHKIDRINHVSNLGCPSLRDPRPNAPSTSA (ligand, ends and bridges not checked; cysteine pairing not given here, also called snake DNP polypeptide) [DNP], the binding result in experiment [4] is “binds”.

The values are drawn from US20110282030A1 (MAYO FOUNDATION FOR MEDICAL EDUCATION AND RESEARCH, published 2011).
